# Data reported in the supplement of paper PMC12764529.
# ± gives the half width of the 95% confidence interval.
# Tests used:
# [1] = folding stability dG unfold from chymotrypsin proteolysis; higher = more stable
# In short: (§1)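 Mini-proteins designed to be under 80 residues and free of cysteine were carried in a PA-tagged cDNA display construct and digested with trypsin and with chymotrypsin. Each protease was applied at 11 threefold-diluted concentrations, alongside a no-protease condition, before sequencing. K50 came from Bayesian fitting of the sequencing counts, and unfolding free energy was obtained by comparing it with a sequence-predicted unfolded-state K50 and a shared folded-state K50, for each protease separately or for both together. Designs were retained only if their AlphaFold2 dimer inter-PAE exceeded 15.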
# [2] = folding stability dG unfold from trypsin proteolysis; higher = more stable
# In short: as §1
# [3] = folding stability dG unfold (combined trypsin and chymotrypsin); higher = more stable
# In short: as §1
Sequence,folding stability dG unfold [1] [kcal/mol],folding stability dG unfold [2] [kcal/mol],folding stability dG unfold [3] [kcal/mol]
SAGGGLGADALAKKFKELFPNAKVEKLPNGKVLFYIPETGKLIEIYDLDDEQIIKIIDPNTPKVYIISAGGS [r16_478_TrMRF],0.986 ± 0.13,1.68 ± 0.077,1.44 ± 0.11
SAGGSAGGSAGGPEVTITLPPPEKVKVEIVEIEVEGGKVRIRVRNENGEELTFTVPLEDLSAGGSAGGSAGG [r7_829_TrROS_Hall],1.59 ± 0.35,0.667 ± 0.18,1.51 ± 0.26
SAGGSAGGSAGGSMTSIKITYPDGSTKSASVSVDPNTGKVTTTFTDYTLSPDAKFTTISSAGGSAGGSAGGS [r10_306_JUSTAS],0.202 ± 0.11,0.372 ± 0.027,0.325 ± 0.073
SNPNEPLTAEEIAKHIEEFMQEEHGIDKIKPEEFTVNPPDGYIKVEMEIEHKNPPGQKHKIDIWIPPDDLSA [r9_1002_TrROS],0.0346 ± 0.14,0.0662 ± 0.22,< -1
SKKKKKKKKKKPKTVIIEIDVKEMSEEEIREILKKLPKNVKRVIIIAKSEEEKEKLKELLKEAGYEVEIVSA [r9_919_TrROS_Hall],1.94 ± 0.069,1.96 ± 0.18,1.76 ± 0.25
SAGGSAGGSAIKPGETIPIKIGNFPIKITVYGDWVEITFPNGRKIRFRVAVDDGKLEIDIYFSAGGSAGGSA [r18_172_TrROS],4.31 ± 0.14,4.07 ± 0.24,4.18 ± 0.14
SAGGSAGGSAGKKIKLPKELKGKKIEVKEVEIEVEVNGKKYKFKAKIVKFDGKIIAIELESAGGSAGGSAGG [r11_21_TrROS_Hall],3.31 ± 0.055,1.36 ± 0.069,2.98 ± 0.17
SPTVTETTLIASEEDPSSGVKTELTETTTIVKVGGTTTEVTTTTTTLTPEEDGKGTSTVTPSTTTTPIPASA [r9_375_JUSTAS],1.45 ± 0.12,0.84 ± 0.079,1.29 ± 0.12
SAGGSAGGSKTPVFYIPPSLKDPEKAIELLEEIRKKIPPGTKIAVIAPGGGIPELKKAGLITASAGGSAGGS [r12_992_TrMRF],0.518 ± 0.03,0.344 ± 0.048,0.472 ± 0.11
SAGGSMLTPDQVIELPDPNVTATITESEVLEEDPEHGTLLVKYLVVISKNGNPVEEERLLRVPKPVSAGGSA [r2_272_JUSTAS],-0.476 ± 0.22,0.205 ± 0.042,-0.01 ± 0.079
SAGGSAGGSAGGGNSLSSVRVVPVTLRTSEPLEQDGDPRPREFTETTVVRITETVPPGLSAGGSAGGSAGGS [r10_118_JUSTAS],0.57 ± 0.082,0.0729 ± 0.18,0.356 ± 0.11
SAGGKEVVIVFPLPENFEAEIFIPDRPVVRLENGLLVAVAPENVPALIVIRNPNGEELVLPVELLDLSAGGS [r8_72_TrMRF],1.28 ± 0.014,1.27 ± 0.037,1.32 ± 0.084
SAGGSAGGSAGEFEILSIETEPPNGRVEIAIRFDDWVVVINFDNPNEPELYPVRPDDGIFSAGGSAGGSAGG [r17_145_TrROS],2.24 ± 0.12,2.54 ± 0.19,2.3 ± 0.17
SAGGSAGGSADDEVVEIVDVLPLPNRPVLVVKVRGPDGQTKVYDPATGKWLTPEEAKAALSSAGGSAGGSAG [r3_206_TrMRF],1.98 ± 0.045,1.09 ± 0.032,1.61 ± 0.086
SAGGSAAKIDPKNGTITIYNKKTGKKIKIKIKNLPPGAKVTIEIKNGKITIKVDGKTIEINIKEIKSAGGSA [r15_864_TrROS_Hall],3.19 ± 0.19,2.1 ± 0.26,2.85 ± 0.29
SAGGSAGGSAGGAAPNTFKVRLELKVKVEKRTYKNEDGSTYEVDSISVELKIEIEPLPDSAGGSAGGSAGGS [r10_1212_TrROS_Hall],5.69 ± 0.2,3.85 ± 0.19,5.66 ± 0.51

Sequence,folding stability dG unfold [1] [kcal/mol],folding stability dG unfold [2] [kcal/mol],folding stability dG unfold [3] [kcal/mol]
SAGGSSEIVELKSIEKKGNSVILTLESKTNDYKVVVVIEGNKIRAYVFDKNGNIIAEFEFDGHPYLSAGGSA [r2_437_TrMRF],3.34 ± 0.046,2.41 ± 0.11,3.15 ± 0.15
SAGGSAGGSAGGTPITDEEFRDLPDDVKLVFENGEVAYVPRDPLKVPIGADKTVTAEPVPSAGGSAGGSAGG [r7_643_TrMRF],0.388 ± 0.035,1.2 ± 0.059,0.801 ± 0.056
SAGGSAGGSAGDIPAIPKVIFIPYPIEKIEVFEDSVVVRVIHPDGGSETIVFPDRALILGSAGGSAGGSAGG [r11_957_TrMRF],1.47 ± 0.03,1.6 ± 0.042,1.53 ± 0.11
SAGGSGGLRVELPFLLPDGYRVTLTVNPETGEITEIRVEPIDAVPPEPEVLPVVGFDPRYGVPLVLSAGGSA [r2_78_TrMRF],0.344 ± 0.14,1.12 ± 0.026,0.812 ± 0.12
SAGGSAGGSAGGPSPSTPVTVTVTFPETGETVTLEVTDLEELRERFPDRPVEITVSPGGSAGGSAGGSAGGS [r10_1004_JUSTAS],2.11 ± 0.041,2.5 ± 0.064,2.42 ± 0.06
SPLELPSDEEITVNAEVLILPYNPETGEIEDEIPIPLPVKIKVKKDGSVEIEIDIPDSIPENVPIVLLLKSA [r9_90_TrMRF],1.81 ± 0.14,1.29 ± 0.062,1.52 ± 0.19
SAGGSAGGSAGTEIKIPPEFPDLPVKVYPIEVTLLGKGKPKKVILNVATTPDAIIAVDPESAGGSAGGSAGG [r11_21_TrMRF],-0.61 ± 0.28,-0.478 ± 0.1,-0.623 ± 0.2
SAGMKYTAEVKVKEKDKEIDVTVSDDATFTDPEGKETTFKIGSEEELKKALEEIFPEKYPYEILSVKVLSAG [r14_41_JUSTAS],0.156 ± 0.18,-0.65 ± 0.47,-0.0975 ± 0.2
SAGGGKTVEVTIEVPGENAVVYIKVYDKDKPISVFPAEFIPPTGTATFTIDVPEDAEITAEVALPEEASAGG [r13_977_TrMRF],0.904 ± 0.14,0.106 ± 0.033,0.687 ± 0.091
SAGGSAGGSAGKTVVIEIKGMSKEQVLNLIKELAEKYPNSKIIITNENGEKIEINVKDLKSAGGSAGGSAGG [r11_541_TrROS_Hall],3.34 ± 0.12,1.95 ± 0.13,2.85 ± 0.22
KAYKVVFPLPKEGRTVVVYVPEEHGKPLTEEEIAALLREAYPDKEPADLPAEELAKILAAKEGVVRVEVEGS [r1_463_TrMRF],0.995 ± 0.12,0.866 ± 0.089,1 ± 0.13
SAGLDEEAYRNGLTVYLTSRLPGPDVLRPQWFDVTPEGDGFTYNVALPDGVPVNLEVLSRKVLSPEELLSAG [r14_427_JUSTAS],0.149 ± 0.32,-0.489 ± 0.51,0.0205 ± 0.19
SAGGSAGGSAGGSDKDPDKMKPKPVFEMEIVTYEWEKDGDGDWEPLSVEVQRIRVYAMDSAGGSAGGSAGGS [r4_288_TrROS],4.51 ± 0.23,3.13 ± 0.14,4.19 ± 0.19
SAGGSAGGSKTVVITLPENEELGLEKLEELIEKVGPDAKIIISRWDPETGKVDYLVIETGEGKSAGGSAGGS [r12_913_TrMRF],1.92 ± 0.21,1.02 ± 0.041,1.69 ± 0.14
SMKIVKIEIEKIEIYSDEEFAKKTGIKPEAIYKNGKKKKVIKIPVKITLYDEKKGEKKEFEAEITIVIDVSA [r9_382_TrMRF],2.61 ± 0.19,1.56 ± 0.15,2.2 ± 0.38
